{"source": "paper PMC11804706", "about": "(Proceedings of the National Academy of Sciences of the …, 2025)", "molecules": {"B1": {"name": "DnaJ, wild type (natural protein)", "chain": "MAKQDYYEILGVSKTAEEREIRKAYKRLAMKYHPDRNQGDKEAEAKFKEIKEAYEVLTDSQKRAAYDQYGHAAFEQGGMGGGGFGGGADFSDIFGDVFGDIFGGGRGRQRAARGADLRYNMELTLEEAVRGVTKEIRIPTLEECDVCHGSGAKPGTQPQTCPTCHGSGQVQMRQGFFAVQQTCPHCQGRGTLIKDPCNKCHGHGRVERSKTLSVKIPAGVDTGDRIRLAGEGEAGEHGAPAGDLYVQVQVKQHPIFEREGNNLYCEVPINFAMAALGGEIEVPTLDGRVKLKVPGETQTGKLFRMRGKGVKSVRGGAQGDLLCRVVVETPVGLNERQKQLLQELQESFGGPTGEHNSPRSKSFFDGVKKFFDDLTR", "modifications": "biotin (DnaJ-biotin in the pull-down assays with ClpB; sites not stated)"}}, "key": {"[1]": {"target": "DnaJ, wild type (E. coli) (UniProt P08622)", "assay": "pull-down"}, "[2]": {"target": "ClpB, wild type (E. coli, UniProt P63284 1-857)", "sequence (P63284 whole entry)": "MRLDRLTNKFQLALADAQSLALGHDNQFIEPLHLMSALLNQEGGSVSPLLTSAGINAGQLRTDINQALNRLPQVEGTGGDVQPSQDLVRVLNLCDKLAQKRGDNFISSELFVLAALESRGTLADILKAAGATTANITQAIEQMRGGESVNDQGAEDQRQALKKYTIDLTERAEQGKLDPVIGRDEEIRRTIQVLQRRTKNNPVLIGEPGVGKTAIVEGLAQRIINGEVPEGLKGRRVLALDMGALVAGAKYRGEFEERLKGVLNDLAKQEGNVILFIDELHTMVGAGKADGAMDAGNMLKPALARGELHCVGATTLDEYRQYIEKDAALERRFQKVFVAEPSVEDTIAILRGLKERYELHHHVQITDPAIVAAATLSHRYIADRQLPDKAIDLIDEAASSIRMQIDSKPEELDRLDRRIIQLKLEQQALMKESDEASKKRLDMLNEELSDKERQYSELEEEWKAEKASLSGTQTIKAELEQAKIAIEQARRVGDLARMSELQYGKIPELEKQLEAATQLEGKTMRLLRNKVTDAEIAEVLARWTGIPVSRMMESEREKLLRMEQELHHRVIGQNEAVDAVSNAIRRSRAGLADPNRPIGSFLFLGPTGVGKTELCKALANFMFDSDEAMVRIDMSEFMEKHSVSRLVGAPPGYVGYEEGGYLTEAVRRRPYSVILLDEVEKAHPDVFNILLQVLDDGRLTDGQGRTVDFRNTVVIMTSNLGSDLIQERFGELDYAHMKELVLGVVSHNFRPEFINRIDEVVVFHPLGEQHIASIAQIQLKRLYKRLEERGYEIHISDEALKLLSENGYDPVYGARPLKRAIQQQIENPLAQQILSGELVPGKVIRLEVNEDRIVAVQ", "assay": "BLI"}}, "data": [{"molecule": "ΔN ClpB (ClpB mutant lacking the NTD) (domain or fragment)", "values": [{"measurement": "binding as percent of wild-type ClpB", "setting": "[1]", "value": 40, "unit": "%"}]}, {"molecule": "B1", "values": [{"measurement": "Kd", "setting": "[2]", "value": "55.2 ± 9.9", "unit": "nM"}]}]}
